Residue numbers refer to the chain shown, from its start.
B1: H183/L072 VL P56F (antibody, name in Kabat numbering, V domains shown)
VH: QVQLVESGGGLVQPGRSLRLSCAASGFTFSNAWMHWVRQAPGKGLEWVAQIKDKGNAYAAYYAPSVKGRFTISRDDSKNSIYLQMNSLKTEDTAVYYCHYVHYASASTVLPAFGVDAWGQGTTVTVSS
VL: DIVMTQSPLSLPVTPGEPASISCQASQELVHMNRNTYLHWYQQKPGQAPRLLIYKVSNRFFGVPDRFSGSGSGTDFTLKISRVEAEDVGVYYCAQGTSVPFTFGQGTKLEIK
notes: Dual-Ig
B2: H183/L072 VL P95G (antibody, name in Kabat numbering, V domains shown)
VH: B1 VH
VL: B1 VL with F61P, P100G
notes: Dual-Ig
B3: H183/L072 VL Q24H (antibody, name in Kabat numbering, V domains shown)
VH: B1 VH
VL: B1 VL with Q24H, F61P
notes: Dual-Ig
B4: H183/L072 VL P95A (antibody, name in Kabat numbering, V domains shown)
VH: B1 VH
VL: B1 VL with F61P, P100A
notes: Dual-Ig
B5: H183/L072 VL P56R (antibody, name in Kabat numbering, V domains shown)
VH: B1 VH
VL: B1 VL with F61R
notes: Dual-Ig
B6: H183/L072 VL Q24L (antibody, name in Kabat numbering, V domains shown)
VH: B1 VH
VL: B1 VL with Q24L, F61P
notes: Dual-Ig
B7: H183/L072 VL Q24G (antibody, name in Kabat numbering, V domains shown)
VH: B1 VH
VL: B1 VL with Q24G, F61P
notes: Dual-Ig
B8: H183/L072 VL P56Q (antibody, name in Kabat numbering, V domains shown)
VH: B1 VH
VL: B1 VL with F61Q
notes: Dual-Ig
B9: H183/L072 VL P95R (antibody, name in Kabat numbering, V domains shown)
VH: B1 VH
VL: B1 VL with F61P, P100R
notes: Dual-Ig
B10: H183/L072 VL Q24M (antibody, name in Kabat numbering, V domains shown)
VH: B1 VH
VL: B1 VL with Q24M, F61P
notes: Dual-Ig
B11: H183/L072 VL P56K (antibody, name in Kabat numbering, V domains shown)
VH: B1 VH
VL: B1 VL with F61K
notes: Dual-Ig
B12: H183/L072 VL P95V (antibody, name in Kabat numbering, V domains shown)
VH: B1 VH
VL: B1 VL with F61P, P100V
notes: Dual-Ig
B13: H183/L072 VL P95H (antibody, name in Kabat numbering, V domains shown)
VH: B1 VH
VL: B1 VL with F61P, P100H
notes: Dual-Ig
B14: H183/L072 VL Q24D (antibody, name in Kabat numbering, V domains shown)
VH: B1 VH
VL: B1 VL with Q24D, F61P
notes: Dual-Ig
B15: H183/L072 VL Q24A (antibody, name in Kabat numbering, V domains shown)
VH: B1 VH
VL: B1 VL with Q24A, F61P
notes: Dual-Ig
B16: H183/L072 VL P95E (antibody, name in Kabat numbering, V domains shown)
VH: B1 VH
VL: B1 VL with F61P, P100E
notes: Dual-Ig
B17: H183/L072 VL P95Q (antibody, name in Kabat numbering, V domains shown)
VH: B1 VH
VL: B1 VL with F61P, P100Q
notes: Dual-Ig
B18: H183/L072 VL P95T (antibody, name in Kabat numbering, V domains shown)
VH: B1 VH
VL: B1 VL with F61P, P100T
notes: Dual-Ig
B19: H183/L072 VL Q24S (antibody, name in Kabat numbering, V domains shown)
VH: B1 VH
VL: B1 VL with Q24S, F61P
notes: Dual-Ig
B20: H183/L072 VL P56I (antibody, name in Kabat numbering, V domains shown)
VH: B1 VH
VL: B1 VL with F61I
notes: Dual-Ig
B21: H183/L072 VL Q24R (antibody, name in Kabat numbering, V domains shown)
VH: B1 VH
VL: B1 VL with Q24R, F61P
notes: Dual-Ig
B22: H183/L072 VL P56V (antibody, name in Kabat numbering, V domains shown)
VH: B1 VH
VL: B1 VL with F61V
notes: Dual-Ig
B23: H183/L072 VL Q24K (antibody, name in Kabat numbering, V domains shown)
VH: B1 VH
VL: B1 VL with Q24K, F61P
notes: Dual-Ig
B24: H183/L072 VL Q24I (antibody, name in Kabat numbering, V domains shown)
VH: B1 VH
VL: B1 VL with Q24I, F61P
notes: Dual-Ig
B25: H183/L072 VL Q24N (antibody, name in Kabat numbering, V domains shown)
VH: B1 VH
VL: B1 VL with Q24N, F61P
notes: Dual-Ig
B26: H183/L072 VL P95L (antibody, name in Kabat numbering, V domains shown)
VH: B1 VH
VL: B1 VL with F61P, P100L
notes: Dual-Ig
B27: H183/L072 VL P95M (antibody, name in Kabat numbering, V domains shown)
VH: B1 VH
VL: B1 VL with F61P, P100M
notes: Dual-Ig
B28: H183/L072 VL P56L (antibody, name in Kabat numbering, V domains shown)
VH: B1 VH
VL: B1 VL with F61L
notes: Dual-Ig
B29: H183/L072 VL P56W (antibody, name in Kabat numbering, V domains shown)
VH: B1 VH
VL: B1 VL with F61W
notes: Dual-Ig
B30: H183/L072 VL P56M (antibody, name in Kabat numbering, V domains shown)
VH: B1 VH
VL: B1 VL with F61M
notes: Dual-Ig
B31: H183/L072 VL P56S (antibody, name in Kabat numbering, V domains shown)
VH: B1 VH
VL: B1 VL with F61S
notes: Dual-Ig
B32: H183/L072 VL P56N (antibody, name in Kabat numbering, V domains shown)
VH: B1 VH
VL: B1 VL with F61N
notes: Dual-Ig
B33: H183/L072 VL P95D (antibody, name in Kabat numbering, V domains shown)
VH: B1 VH
VL: B1 VL with F61P, P100D
notes: Dual-Ig
B34: H183/L072 VL P95I (antibody, name in Kabat numbering, V domains shown)
VH: B1 VH
VL: B1 VL with F61P, P100I
notes: Dual-Ig
B35: H183/L072 VL P95K (antibody, name in Kabat numbering, V domains shown)
VH: B1 VH
VL: B1 VL with F61P, P100K
notes: Dual-Ig
B36: H183/L072 VL P56T (antibody, name in Kabat numbering, V domains shown)
VH: B1 VH
VL: B1 VL with F61T
notes: Dual-Ig
B37: H183/L072 VL Q24P (antibody, name in Kabat numbering, V domains shown)
VH: B1 VH
VL: B1 VL with Q24P, F61P
notes: Dual-Ig
B38: H183/L072 VL Q24F (antibody, name in Kabat numbering, V domains shown)
VH: B1 VH
VL: B1 VL with Q24F, F61P
notes: Dual-Ig
B39: H183/L072 VL P95W (antibody, name in Kabat numbering, V domains shown)
VH: B1 VH
VL: B1 VL with F61P, P100W
notes: Dual-Ig
B40: H183/L072 VL P95F (antibody, name in Kabat numbering, V domains shown)
VH: B1 VH
VL: B1 VL with F61P, P100F
notes: Dual-Ig
B41: H183/L072 VL P95N (antibody, name in Kabat numbering, V domains shown)
VH: B1 VH
VL: B1 VL with F61P, P100N
notes: Dual-Ig
B42: H183/L072 VL P56G (antibody, name in Kabat numbering, V domains shown)
VH: B1 VH
VL: B1 VL with F61G
notes: Dual-Ig
B43: H183/L072 VL P56H (antibody, name in Kabat numbering, V domains shown)
VH: B1 VH
VL: B1 VL with F61H
notes: Dual-Ig
B44: H183/L072 VL P95S (antibody, name in Kabat numbering, V domains shown)
VH: B1 VH
VL: B1 VL with F61P, P100S
notes: Dual-Ig

Molecular target: T1, Human CD137 ECD (human)
T1 construct: entry includes C-terminal His-tag and biotin acceptor peptide; also called human CD137 extracellular domain; 4-1BB
Assay: Biacore SPR, vs parent H183/L072

T1 sequence (chain, as listed by the source limits assumed): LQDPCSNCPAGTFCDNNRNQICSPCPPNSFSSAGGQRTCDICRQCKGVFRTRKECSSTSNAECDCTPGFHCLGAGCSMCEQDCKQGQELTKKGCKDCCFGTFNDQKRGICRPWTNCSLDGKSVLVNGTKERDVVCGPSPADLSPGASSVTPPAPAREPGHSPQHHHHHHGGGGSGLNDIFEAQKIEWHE

Binder | fold change of affinity [fold]
B1 | 0
B2 | 0
B3 | 1
B4 | 0
B5 | 0
B6 | 0.9
B7 | 1
B8 | 0.2
B9 | 0
B10 | 1
B11 | 0
B12 | 0
B13 | 0
B14 | 0.9
B15 | 1
B16 | 0
B17 | 0
B18 | 0
B19 | 1
B20 | 0.1
B21 | 0.9
B22 | 0

Binder | fold change of affinity [fold]
B23 | 1
B24 | 0.9
B25 | 0.9
B26 | 0
B27 | 0
B28 | 0.1
B29 | 0
B30 | 0.2
B31 | 0.1
B32 | 0.2
B33 | 0
B34 | 0
B35 | 0
B36 | 0.2
B37 | 0
B38 | 0.9
B39 | 0
B40 | 0
B41 | 0
B42 | 0.1
B43 | 0
B44 | 0
